Measured values from patent US20180305450A1 (AstraZeneca / MedImmune, published 2018).
Where a chain is given by its changes, count along the chain named. Names and notes keep the numbering of the source. Each block holds one binder with its values, some of them ahead of it.

Key:
[1] = biological target: T1, recombinant biotinylated human PAR2 extracellular domain (residues 1-75), N-terminal AviTag, C-terminal Flag … (human, UniProt P55085 26-75, biotin on the AviTag (enzymatic biotinylation)); assay: HTRF competition with Dylight650-Par0067 IgG, IgG
T1 construct: also called Bio-human-PAR2 ECD; human PAR2 ECD; not shown: N-terminal AviTag (Avidity LLC); C-terminal Flag and poly Histidine tags
Protocol: (§1) Parent Par0067 IgG (used as a reference/control in all assays) was pre-diluted to give a 2000 nM stock in each of the two different pH assay buffers (in order to give a top final assay IgG concentration of 500 nM). All test, or other reference/control IgG were tested from a top final assay concentration of ¼ of the neat undiluted sample (i.e. no pre-dilution step was performed). Duplicate 11 point 1:3 serial dilutions then were prepared on 384 well polypropylene Greiner plates in each of the two assay buffers (pH 7.4 & 6.0). 5 μl per well was transferred from the relevant pH IgG dilution plate to the corresponding assay plate (pH 7.4 and pH 6.0). 5 ul of the appropriate pH assay buffer was added to the total and non-specific wells.
(§2) For multipoint dose response curves % Specific Binding values were plotted versus test purified antibody concentration (scFv or IgG). IC₅₀ values were determined via a sigmoidal dose response inhibition variable slope curve fit (4 parameter logistic equation) using Graphpad Prism Software.

[2] = biological target: T1, recombinant biotinylated human PAR2 …; assay: HTRF competition with Dylight650-Par0067 IgG, pH 6.0, IgG
Protocol: as §1, §2

[3] = biological target: T1, recombinant biotinylated human PAR2 …; assay: HTRF competition with Dylight650-Par0067 IgG, pH 7.4, IgG
Protocol: as §1, §2

[4] = biological target: T1, recombinant biotinylated human PAR2 …; assay: Biacore SPR 25 C, pH 6.0
Protocol: (§3) The experiments were carried out using recombinant human, rat and cynomolgus PAR2 with an N-terminal Avi tag and C-terminal Flag-His tags.
(§4) Streptavidin was covalently immobilised to a C1 chip surface using standard amine coupling techniques at a concentration of 4 μg/ml in 10 mM Sodium acetate pH 4.5. A final streptavidin surface of approximately 30-100 RUs was achieved. Recombinant biotinylated PAR2 species (produced in-house) were titrated onto the streptavidin chip surface at 4 μg/ml in HBS-EP+ buffer to enable Fab binding at saturation (Rₘₐₓ). This low level of analyte binding ensured minimal mass transport effects.
(§5) The anti-PAR2 Fabs were serially diluted (0.39 nM-25 nM) in HBS-EP+ buffer pH 7.4 or MES-BS-EP+ pH 6.0 buffer or in MES-BS-EP+ pH 5.6 buffer and flowed over the chip at 50 μl/min, with 3 minutes association and up to 30 minutes dissociation. Multiple buffer-only injections were made under the same conditions to allow for double reference subtraction of the final sensorgram sets, which were analysed using the BiaEval software (version 2.0.1). The chip surface was fully regenerated with pulses of 4 M MgCl₂.

[5] = biological target: T2, recombinant biotinylated rat PAR2 extracellular residues 1-75, N-terminal AviTag, C-terminal Flag and poly … (rat, UniProt Q63645 26-75, not fully specified; biotin on the AviTag (enzymatic biotinylation)); assay: Biacore SPR 25 C, pH 6.0
T2 construct: range 1-75; not shown: N-terminal AviTag (Avidity LLC); C-terminal Flag and poly Histidine tags
T2 chain (looked up): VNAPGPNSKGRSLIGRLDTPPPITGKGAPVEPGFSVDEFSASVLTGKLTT
Protocol: as §3, §4, §5

[6] = biological target: T1, recombinant biotinylated human PAR2 …; assay: Biacore SPR 25 C, pH 7.4
Protocol: as §3, §4, §5

[7] = biological target: T2, recombinant biotinylated rat PAR2 …; assay: Biacore SPR 25 C, pH 7.4
Protocol: as §3, §4, §5

T1 sequence (P55085 26-75): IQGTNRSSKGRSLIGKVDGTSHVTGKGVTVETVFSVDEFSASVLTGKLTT

B1: Par0067 IgG (antibody, V domains shown)
VH: EVQLLESGGGLVQPGGSLRLSCAASGFTFSSYAMNWVRQAPGKGLEWVSTISYSGSLISYADSVKGRFTISRDNSKNTLYLQMNSLRAEDTAVYYCARINNDPMDVWGQGTLVTVSS
VL: SIELTQPPSVSVSPGQTASITCSGDNLGKKYVQWYQQKPGQSPVLVIYDDSNRPSGIPERFSGSNSGNTATLTISGTQAMDEADYYCQTWDGNPTTGETNVFGGGTKLTVL
notes: IgG1-TM (L234F, L235E, P331S), human lambda light chain; also called ZZ15D2-D02; parent Par0067 IgG
Fold IC50 (pH 6.0 v pH 7.4) [1]: 0.95 fold | Fold IC50 pH 7.4 (Variant v Par0067) [1]: 1 fold | IC50 [2]: 0.79 nM | IC50 [3]: 0.835 nM

B5: PaB670163 IgG (antibody, V domains shown)
VH: B1 VH with S54H, S56H, L57H, V64H, K65H, G66H, N101H
VL: B1 VL with Q88H, N93H, P94H, V101H
notes: IgG1-TM (L234F, L235E, P331S), human lambda light chain
Fold IC50 pH 7.4 (Variant v Par0067) [1]: 174 fold | IC50 [3]: 145 nM

B6: PaB670048 IgG (antibody, V domains shown)
VH: B1 VH with N100H, N101H, V106H
VL: B1 VL
notes: IgG1-TM (L234F, L235E, P331S), human lambda light chain; also called ZZ1KX4-E11
Fold IC50 (pH 6.0 v pH 7.4) [1]: 8.5 fold | Fold IC50 pH 7.4 (Variant v Par0067) [1]: 6.8 fold | IC50 [2]: 48.2 nM | IC50 [3]: 5.7 nM

B7: PaB670146 IgG (antibody, V domains shown)
VH: B1 VH with N101H
VL: B1 VL with Q88H, D91H, G92H, N93H, T96H, T99H
notes: as for B5
Fold IC50 (pH 6.0 v pH 7.4) [1]: 8.5 fold | Fold IC50 pH 7.4 (Variant v Par0067) [1]: 110 fold | IC50 [2]: 784 nM | IC50 [3]: 91.9 nM

B10: PaB670142 IgG (antibody, V domains shown)
VH: B1 VH with N100H, N101H
VL: B1 VL with T96H
notes: as for B5
Fold IC50 (pH 6.0 v pH 7.4) [1]: 14 fold | Fold IC50 pH 7.4 (Variant v Par0067) [1]: 5.7 fold | IC50 [2]: 67.1 nM | IC50 [3]: 4.8 nM

Other lines, results leading:

Kd [4]: 0.0312 nM | koff [4]: 9.72e-05 s⁻¹ | kon [4]: 3.12e+06 M⁻¹ s⁻¹ | Kd [5]: 0.17 nM | koff [5]: 0.000544 s⁻¹ | kon [5]: 3.21e+06 M⁻¹ s⁻¹ | Kd [6]: 0.0075 nM | koff [6]: 4.96e-05 s⁻¹ | kon [6]: 6.66e+06 M⁻¹ s⁻¹ | Kd [7]: 0.0376 nM | koff [7]: 0.000194 s⁻¹ | kon [7]: 5.16e+06 M⁻¹ s⁻¹
B2: Par0067 Fab (Fab, V domains shown)
VH: B1 VH
VL: B1 VL
notes: Fab; also called ZZ15D2-D02

Fold IC50 pH 7.4 (Variant v Par0067) [1]: 605 fold | IC50 [3]: 505 nM
B3: PaB670149 IgG (antibody, V domains shown)
VH: B1 VH with S54H, S56H, L57H, V64H, K65H, G66H, N101H
VL: B1 VL with Q88H, D91H, G92H, N93H, T96H, T99H
notes: as for B5

Fold IC50 (pH 6.0 v pH 7.4) [1]: 5.9 fold | Fold IC50 pH 7.4 (Variant v Par0067) [1]: 2.8 fold | IC50 [2]: 13.9 nM | IC50 [3]: 2.4 nM
B4: PaB670141 IgG (antibody, V domains shown)
VH: B1 VH with N101H
VL: B1 VL with T96H
notes: as for B5

Kd [4]: 1.8 nM | koff [4]: 0.000607 s⁻¹ | kon [4]: 336000 M⁻¹ s⁻¹ | Kd [5]: 10.2 nM | koff [5]: 0.00542 s⁻¹ | kon [5]: 531000 M⁻¹ s⁻¹ | Kd [6]: 0.0325 nM | koff [6]: 0.000111 s⁻¹ | kon [6]: 3.52e+06 M⁻¹ s⁻¹ | Kd [7]: 0.184 nM | koff [7]: 0.000558 s⁻¹ | kon [7]: 3.04e+06 M⁻¹ s⁻¹
B8: PaB670103 Fab (Fab, V domains shown)
VH: B1 VH
VL: B1 VL with Q88H, N93H, P94H, V101H
notes: Fab; also called ZZ1RCX-C09

Kd [4]: 20.1 nM | koff [4]: 0.0457 s⁻¹ | kon [4]: 2.22e+06 M⁻¹ s⁻¹ | Kd [5]: 38.5 nM | koff [5]: 0.0689 s⁻¹ | kon [5]: 1.79e+06 M⁻¹ s⁻¹ | Kd [6]: 0.613 nM | koff [6]: 0.00365 s⁻¹ | kon [6]: 5.95e+06 M⁻¹ s⁻¹ | Kd [7]: 3.02 nM | koff [7]: 0.0196 s⁻¹ | kon [7]: 6.49e+06 M⁻¹ s⁻¹
B9: PaB670128 Fab (Fab, V domains shown)
VH: B1 VH with S54H, S56H, L57H, V64H, K65H, G66H, N100H, N101H
VL: B1 VL
notes: Fab; also called ZZ1RUE-A01
